The test concerns the target 0N4R isoform of human tau bearing P301S with a C-terminal Venus tag (Sarkosyl-insoluble filaments from seeded HEK293 cells) (human).

For “Recombinant N-terminally 6xHis-tagged human P301S 0N4R tau (heparin-assembled fibrils) (natural protein)”, the percent of HEK293 P301S tau-Venus cells with aggregates (Venus fluorescence) 24 h after 100 nM recombinant tau fibrils with lipofectamine came out at 20%.

Values taken from paper PMC7614924.
